Results on two molecules are retold here after paper PMC12915131, “Balanced Expression of the Diiron Oxygenase BioE Is Essential for Biotin Homeostasis in Elizabethkingia meningoseptica”.

For the data set, the target named is BioL (EmBioL), MocR-family repressor (Elizabethkingia meningoseptica, UniProt A0A1T3FDC7 1-495). Put plainly: EMSA; PLP in protein elution buffer; 5 mM Mg2+; EMSA: 20 mM Tris-HCl pH 8.0, 50 mM KCl, 5 mM MgCl2, 1 mM DTT, 5% glycerol, room temperature 20 min; 5% native PAGE, GelRed stain. To be noted: protein: recombinant; tags: tag-free after Ulp1 cleavage of GST-SUMO; chain copies: 2; blunt. A general note: In EMSA bound probe runs differently from free probe, usually more slowly.

B1: PbioB probe (dsDNA)
DNA 1: TGCTTTTATCAAACTCATGTGTAATTACTCTGGTAATCTATATGATTAAGATTTAGAAG
DNA 2: CTTCTAAATCTTAATCATATAGATTACCAGAGTAATTACACATGAGTTTGATAAAAGCA
Regarding B1, the binding result is given as “binds”.

B2: PbioE probe (dsDNA)
DNA 1: TTTTAAATCTGGTACCATTTAAGGTCCGGCAAGATAATAATTTTGCTTCAAAAAAGAG
DNA 2: CTCTTTTTTGAAGCAAAATTATTATCTTGCCGGACCTTAAATGGTACCAGATTTAAAA
B2: the binding result is “binds”.
